Test results reported in the supplement of paper PMC9112550, “Optimization of the antimicrobial peptide Bac7 by deep mutational scanning” (BMC Biology, 2022).

System: Escherichia coli TOP10
Experiment: shrunken log2 fold change of peptide-encoding DNA abundance (4.5 h post-induction vs induction); higher = less antimicrobial activity (less host growth inhibition)
Conditions: time post-induction: 4.5 h; library: site-saturation at positions 5, 18, 19, 20
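Further: peptides expressed intracellularly from a pBAD plasmid library in pooled LB shake-flask culture, induced with 0.3% L-arabinose, DNA abundance read by NGS, three biological replicates, DESeq2 with apeglm shrinkage.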

Sequence: RRIRFRPPRLPRPRPRPSTDPRP
- shrunken log2 fold change: -0.667

Sequence: RRIRTRPPRLPRPRPRPYMGPRP
- shrunken log2 fold change: -1.93

Sequence: RRIRGRPPRLPRPRPRPNQQPRP
- shrunken log2 fold change: 0.0317

Sequence: RRIRKRPPRLPRPRPRPQATPRP
- shrunken log2 fold change: 0.0984

Sequence: RRIRPRPPRLPRPRPRPNRQPRP
- shrunken log2 fold change: -0.0342

Sequence: RRIRWRPPRLPRPRPRPQKSPRP
- shrunken log2 fold change: 0.0128

Sequence: RRIRFRPPRLPRPRPRPDPKPRP
- shrunken log2 fold change: 0.117

Sequence: RRIRPRPPRLPRPRPRPSDEPRP
- shrunken log2 fold change: -0.244

Sequence: RRIRFRPPRLPRPRPRPYPRPRP
- shrunken log2 fold change: -0.6

Sequence: RRIRQRPPRLPRPRPRPSGTPRP
- shrunken log2 fold change: 0.0732

Sequence: RRIRVRPPRLPRPRPRPEVLPRP
- shrunken log2 fold change: 0.244

Sequence: RRIRGRPPRLPRPRPRPGAHPRP
- shrunken log2 fold change: 0.755

Sequence: RRIRMRPPRLPRPRPRPRTNPRP
- shrunken log2 fold change: 0.295

Sequence: RRIRWRPPRLPRPRPRPDGDPRP
- shrunken log2 fold change: 0.36

Sequence: RRIRERPPRLPRPRPRPKRRPRP
- shrunken log2 fold change: 0.143

Sequence: RRIRNRPPRLPRPRPRPYENPRP
- shrunken log2 fold change: -0.0659

Sequence: RRIRIRPPRLPRPRPRPSFRPRP
- shrunken log2 fold change: -0.671

Sequence: RRIRVRPPRLPRPRPRPRMRPRP
- shrunken log2 fold change: 0.873

Sequence: RRIRTRPPRLPRPRPRPGCPPRP
- shrunken log2 fold change: 0.086

Sequence: RRIRMRPPRLPRPRPRPKIEPRP
- shrunken log2 fold change: 0.367

Sequence: RRIRRRPPRLPRPRPRPRWNPRP
- shrunken log2 fold change: 0.326

Sequence: RRIRMRPPRLPRPRPRPCRIPRP
- shrunken log2 fold change: -0.0476

Sequence: RRIRERPPRLPRPRPRPRMNPRP
- shrunken log2 fold change: 0.0757

Sequence: RRIRDRPPRLPRPRPRPGFLPRP
- shrunken log2 fold change: 0.368

Sequence: RRIRARPPRLPRPRPRPHFEPRP
- shrunken log2 fold change: 0.703

Sequence: RRIRMRPPRLPRPRPRPQYWPRP
- shrunken log2 fold change: -0.194

Sequence: RRIRMRPPRLPRPRPRPKGEPRP
- shrunken log2 fold change: 1.27

Sequence: RRIRERPPRLPRPRPRPLHPPRP
- shrunken log2 fold change: 0.309

Sequence: RRIRERPPRLPRPRPRPDRVPRP
- shrunken log2 fold change: 0.00251

Sequence: RRIRVRPPRLPRPRPRPKNCPRP
- shrunken log2 fold change: -0.183

Sequence: RRIRWRPPRLPRPRPRPIWEPRP
- shrunken log2 fold change: 0.00194

Sequence: RRIRYRPPRLPRPRPRPMPNPRP
- shrunken log2 fold change: -0.0961

Sequence: RRIRTRPPRLPRPRPRPDANPRP
- shrunken log2 fold change: -0.103

Sequence: RRIRMRPPRLPRPRPRPNEDPRP
- shrunken log2 fold change: 0.186

Sequence: RRIRRRPPRLPRPRPRPPTRPRP
- shrunken log2 fold change: 0.688

Sequence: RRIRLRPPRLPRPRPRPSLKPRP
- shrunken log2 fold change: 0.0368

Sequence: RRIRWRPPRLPRPRPRPEYYPRP
- shrunken log2 fold change: -0.13

Sequence: RRIRERPPRLPRPRPRPEDFPRP
- shrunken log2 fold change: 0.089

Sequence: RRIRRRPPRLPRPRPRPTMCPRP
- shrunken log2 fold change: 0.233

Sequence: RRIRKRPPRLPRPRPRPPGAPRP
- shrunken log2 fold change: 1.3

Sequence: RRIRMRPPRLPRPRPRPRSVPRP
- shrunken log2 fold change: 0.871

Sequence: RRIRLRPPRLPRPRPRPWMCPRP
- shrunken log2 fold change: -0.492

Sequence: RRIRQRPPRLPRPRPRPKEVPRP
- shrunken log2 fold change: 0.382

Sequence: RRIRIRPPRLPRPRPRPRNLPRP
- shrunken log2 fold change: -0.306

Sequence: RRIRHRPPRLPRPRPRPEDEPRP
- shrunken log2 fold change: 0.0969

Sequence: RRIRRRPPRLPRPRPRPCYGPRP
- shrunken log2 fold change: -0.214

Sequence: RRIRSRPPRLPRPRPRPVASPRP
- shrunken log2 fold change: -0.151

Sequence: RRIRNRPPRLPRPRPRPYHIPRP
- shrunken log2 fold change: -0.366

Sequence: RRIRTRPPRLPRPRPRPTDLPRP
- shrunken log2 fold change: -0.0718

Sequence: RRIRKRPPRLPRPRPRPFLGPRP
- shrunken log2 fold change: 0.0561

Sequence: RRIRLRPPRLPRPRPRPKTRPRP
- shrunken log2 fold change: 0.226

Sequence: RRIRMRPPRLPRPRPRPKIWPRP
- shrunken log2 fold change: 0.704

Sequence: RRIRKRPPRLPRPRPRPDQRPRP
- shrunken log2 fold change: 0.458

Sequence: RRIRHRPPRLPRPRPRPDEAPRP
- shrunken log2 fold change: -0.0728

Sequence: RRIRVRPPRLPRPRPRPAWNPRP
- shrunken log2 fold change: 0.219

Sequence: RRIRYRPPRLPRPRPRPNCSPRP
- shrunken log2 fold change: -0.973

Sequence: RRIRGRPPRLPRPRPRPLMCPRP
- shrunken log2 fold change: 0.55

Sequence: RRIRRRPPRLPRPRPRPDYQPRP
- shrunken log2 fold change: 0.0952

Sequence: RRIRQRPPRLPRPRPRPPMEPRP
- shrunken log2 fold change: -0.22

Sequence: RRIRQRPPRLPRPRPRPHGHPRP
- shrunken log2 fold change: -0.113

Sequence: RRIRWRPPRLPRPRPRPFCCPRP
- shrunken log2 fold change: -0.163

Sequence: RRIRVRPPRLPRPRPRPPISPRP
- shrunken log2 fold change: 0.0369

Sequence: RRIRMRPPRLPRPRPRPGCCPRP
- shrunken log2 fold change: 1.36

Sequence: RRIRFRPPRLPRPRPRPCIFPRP
- shrunken log2 fold change: -0.361

Sequence: RRIRFRPPRLPRPRPRPECDPRP
- shrunken log2 fold change: 0.248

Sequence: RRIRYRPPRLPRPRPRPKDDPRP
- shrunken log2 fold change: -0.153

Sequence: RRIRIRPPRLPRPRPRPADTPRP
- shrunken log2 fold change: -0.347

Sequence: RRIRYRPPRLPRPRPRPYCVPRP
- shrunken log2 fold change: -1.71

Sequence: RRIRTRPPRLPRPRPRPREVPRP
- shrunken log2 fold change: 0.442

Sequence: RRIRKRPPRLPRPRPRPLKAPRP
- shrunken log2 fold change: 0.0198

Sequence: RRIRLRPPRLPRPRPRPSVFPRP
- shrunken log2 fold change: -0.364

Sequence: RRIRLRPPRLPRPRPRPIFMPRP
- shrunken log2 fold change: -0.414

Sequence: RRIRTRPPRLPRPRPRPEYEPRP
- shrunken log2 fold change: -0.0445

Sequence: RRIRERPPRLPRPRPRPFNHPRP
- shrunken log2 fold change: -1.01

Sequence: RRIRMRPPRLPRPRPRPGNLPRP
- shrunken log2 fold change: 0.0466

Sequence: RRIRERPPRLPRPRPRPQMWPRP
- shrunken log2 fold change: -0.0958

Sequence: RRIRFRPPRLPRPRPRPLASPRP
- shrunken log2 fold change: -0.0784

Sequence: RRIRWRPPRLPRPRPRPYGHPRP
- shrunken log2 fold change: -0.478

Sequence: RRIRYRPPRLPRPRPRPKCSPRP
- shrunken log2 fold change: -0.433

Sequence: RRIRHRPPRLPRPRPRPWFPPRP
- shrunken log2 fold change: -0.379

Sequence: RRIRHRPPRLPRPRPRPMDCPRP
- shrunken log2 fold change: -0.0499

Sequence: RRIRYRPPRLPRPRPRPSEHPRP
- shrunken log2 fold change: -0.488

Sequence: RRIRKRPPRLPRPRPRPTTGPRP
- shrunken log2 fold change: 0.733

Sequence: RRIRNRPPRLPRPRPRPPHFPRP
- shrunken log2 fold change: 0.0188

Sequence: RRIRMRPPRLPRPRPRPCRMPRP
- shrunken log2 fold change: -0.0205

Sequence: RRIRNRPPRLPRPRPRPSVNPRP
- shrunken log2 fold change: -0.201

Sequence: RRIRWRPPRLPRPRPRPVPCPRP
- shrunken log2 fold change: -0.00353

Sequence: RRIRHRPPRLPRPRPRPVAHPRP
- shrunken log2 fold change: -0.00816

Sequence: RRIRLRPPRLPRPRPRPWIPPRP
- shrunken log2 fold change: -0.0167

Sequence: RRIRIRPPRLPRPRPRPYKTPRP
- shrunken log2 fold change: -0.0104

Sequence: RRIRWRPPRLPRPRPRPAQAPRP
- shrunken log2 fold change: 0.237
